34 sequences from the NTF2 design screens of Basanta et al. (2020) can be followed below.

The nature of this data set: protease stability score; higher = more stable; yeast display proteolysis, trypsin and chymotrypsin.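 Also: relative to predicted unfolded state with 0 unfolded-like and 1 meaning tenfold more protease.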
In the case of “DEDTKRVEELMELWIEIWRTGDFKMLHHLLDPNVLLHVDIGDKHINVHGREEFTRFLEEELRKVKNAREEINDEKLVGDKVILDYSIHVNGRTLRVHLEIILIDGRMKVSRVKVK”, the protease stability score came out at 2.14. The value for “DEDTKTAWRMLHLSHKAIETGDEHLIKHLFDPHVRIHIDGVDLHGREELLTHLRHWRMVVEDEVSKDSKSYGDKITLDGHVDLTFEYNGRRVRVIFDTRIIIVKFNGRWLIKTIHFE” was 0.512; that for “DEDTKVVEEILRLLVEIWKTGDEHTWKRLLDPHARMDVDGRELHGREEIARHVKEETEKLGANVHNHVEIHHMEIIGNKVIIDGTVDGIVNGRITRIRVEVFWLVFDGVIKEEEHRVL” was 0.955; that for “DEDTLIAKEIAELIIHALLTGDEDILKRLMDPTVKNDVNGVEFHGREILYKLLLEMRIHRVEYTHIDMRIYNGRAEVRIHGKIHVTINGVHDDKERRIDIIIVKINGKWTIESFVVHRL” was 2.53. The value for “DEDTNIEKMASQRIFHDIMTGDFQSLWEMFDPNARLIQGDWHSHGRENIIIYYMELVEKLGVTNVRFRLEDEDSQGDKVIIHSSLNINGRHFKLDIHAVKINGRWFIREVDVRLH” was 1.4. The value for “DEDTNLLREFVRLLSEALKTGDEDTLRTLFDPHVRFIIGDKDLVGREAFHFFLERFDVIRSVELHNYDHYGDKVTLDTRQVIHVNGQDIRIHSHIVVTKVNGRWRLESVKFK” was 1.25; that for “DEDTQRREEWHHQFIMSMRTGDERLLLELVDPNYRSDINGVELHGWEFAEKLMRDAGVKHYELKRVHHIGDKMIVDGVTTFNGKERRVIFIARKIDGRWLITSSHFE” was 1.31; that for “DEDTQTLEKIWRDFVRALRTGDEDHLSRLLDPNTRIDINGKESHGRERAEEVLREMFERIDHFHRVEIHDRREVNGRVNLDTRRDVEVNGVRDMYTTHLIILKVDGKWSMKTIELK” was 1.33. Take “DEDTRDAEHISRMMLHAFITGDERLIEKNADPDTRIDVNGVDYHGREEMVKLFKRWLDELGVNHMEIKETTTHVYDGRVEVVLHLHVDYNGRRHHLIIIIINDKFDGQWRIRSLEFEER”: the protease stability score stood at 1.37. The value for “DEDTRDAEQFLKELLHNQITGDEESEDKLADPNVRIIINGREIHGRETWIKWRRQARITFEDQRVHSIHMIGDKLVLKIEIDGNLSFNGREIRDTVEIEIVVTKVNGRWVLDQVHFK” was 1.63; that for “DEDTRDTEIAFELLLRHMYTGDWHLVERMLDPNVRVHQGDFHTVGWEDFVRISLEARLHDMRIHQVRSQGDFVEIDGHVDFEINGKRIRVRTILIVLKVNGRWFLKSIEIR” was 1.23; that for “DEDTRDVDRFLKRLEETLLTGDWNSIRELFDPNVKVIFNGRHRHGWQNMVDILREIRVTDVRMELDDVEQYGDKITIRGRLRFKGEINGKEQDTSLTIEIILIKVNGKWSVNSIEFR” was 2.46. The value for “DEDTREAEKMYRLFRHLFLTGDWEHTYQLADPHVRTDFNGVEWHGRELALEILLHFLEILGVDHITLKRQEIHIVDGRLLVILHLELRAENHSEDLLIIVIMNKFDGRWHVESEEIKVR” was 0.539; that for “DEDTREKRRILEESLHIFETGDWEAMLKNADPNVRSEIHIGDKRLEFHGMRNWLEEWLTRLEKIKNMTFRIHDIRRQGDKVHIDGDLHVNGKHSKVRIELIIVDGVIHTLFFFDH” was 0.953. The value for “DEDTRESEKMLSEILESHLTGNWRMIRHLADPHVRVEIGDKTYHGRDNLKRIFLDLLEKLGVDHMEFRDIHIRVQGDKLHIHIKVDLIVGDKVDIMQSHIHVEKINGRWYVHLVHWRLT” was 0.817. Take “DEDTRIMEELLELTMEHVKTGDESSFRKLADPNVRMEYNGVEIHGREEASELFLEEMERIKNLTLRIKRLHIQGDKVIIYEEYEYGEKSWTVTYEAYKINGRWLMESIRFG”: the protease stability score came to 1.13. The value for “DEDTRKIYHWAELIVELLMTGDEDILHELADPDVKVHINGVTLHGREEADKFLEEWLRRFKNIQIRIRRITVINGRVDVESEVNVGDKRKDSRIHATVVNGRWKIISMDDH” was 1.42. Turning to “DEDTRLAEDELQLWVEHVETGDEDTLFELLDPNVRLHIGDKELHGREAWVQWLVEARVEHVHIRDIKVVDGKVLITGRIIFRVGDKRVDTDHHMIIEKINGRWVLHEIHFH”, the protease stability score is 2.07. The value for “DEDTRLEKEFLRILEEILKTGDEERLRRLVDPNTRLEVGDKRFHGWDAVHYMLRIFGIERIHFELTSRRRVNGRLELDGILRFNGRDHDTHIIIDKINGVWIVREERVE” was 2.19; that for “DEDTRMNELFVRLFYELLTTGDEEHIHEMFDPHARLDFDGQQYHGREDAVRKMHELSRRLGIKHIEIREFRKVGDWANLHGKIYVNGQEYELHVILHKVDGRWITRDIRIK” was 1.3; that for “DEDTTMLEEMARLLVEMWLTGDEEKIYKLADPDVRLNVNGKDQIGREESEKLRRELLETLGIKHFEVEDLKIRLIDGRVNVHIYGIVKFNGVNVKMILDHHSRKVNGRWRIEHLRIIHI” was 1.32.

Turning to “DEDVEDSLRALRELTKSLITGDEDSFRHLADPHARFIWNGKEIHGWEEVVKVVSKILKHLRFDDIILRDIRIQGDKIEFVVTDLVTVGDKHEEVDSRVTIYKVNGRWLLHTIKIR”, the protease stability score is 1.3.

Turning to “DEDVELFELIFKVMIELLETGNEELLRHLADPHTRVHINGVDFHGMEDWLKFLRHIRIEDIKIRHVSVVNGVMHAETETLMHVNGRDKRVDTRVTAIKINGRWVLKHVQYK”, the protease stability score was determined as 2.51. The value for “DEDVKLALHIIHLFIRALSTGNEELVKTYADPHWRLEIGDKILHGMDEWKEDLKELRIYYHHVTFRDYEIIDGRIIIHTELDGRLEVGDYEQRIRTRTHVFVDKINGRWDITHVEVR” was 1.2; that for “DEDVKTLEHLLRLINDINRTGDEERWMHEADPNTLVIYDGVESHGRESVMKLYHKHWEQLRIEEIHIHHIKMQGNKATIHGRLRGEIDGREKSFTIHVHIILINGQIQSITFRIE” was 1.02; that for “DEDWHKLEETMRRFAKAMLTGDEDDLRKLADPDYRLDVNGRDLHGMESVKHWLDELRLVINDVKVREVHVIDGRLYLDTQVHSIETINGVEIRFVTETHVVIRKIDGKWINREMSIK” was 0.285. The value for “DEDYENFERFLKEWSHSVLTGNEDRLMELADPHTRLNINGVDIHGREEVLKFEHEHLKRVKGATLRRVRVRHYSFVNGVAFVETEFDGHINGVDYRLETEMHIHKFNGVWRMKHIEKK” was 0.956; that for “DEEALKKLQDILRRNDQDKMNKMIDKDVRVVIGEHEYRGKRNVQEALKREYEHADRFEVKHIEDHGDKLHVDVVLRVDGRDIRFVVVIDVHNGNIRNVKVDFTDEDTQRDFQRQLD” was 1.02. The value for “DEEDDEAREVHERLVRAFKTGNEELLLKMADPNTRDLFVVDGRTIHLVGWEHWRISLHELRIHDQRIRRSHVIDGRVHSDWEIDVEFNGRRSRKKLEIRIEVVNGVTKSVEFIFR” was 1.31; that for “DEEDEALERSRQLLIKILRTGDFEDLDRMLDPHVRIIIGDKEFHGREEAIKWVRERMKRMGAKVVEHFNEDDWRLQGDKIELDGEYNVRQGDKQYHLRVHIISLKVDGKWYFHSLEIK” was 0.232. “DEEDEANKQIMEHLRKVWDTGDFHTYLRLADPHMRFIVGDKIFHGREEITQLIKELLEKFGADHVELENSRESLVGDKLHLDLHTRYHFNGREIRVDVHNEVTKIDGKWHIKFLSLRIK” returned a protease stability score of 1.42.

Turning to “DEEDEASHLALRLLEFTMKTGDERVSKENFDPNVRIEINGVDLHGWEHLTRILREIRIHDVRIEHSEVQGEKLILHGRMHWRVNGRDIEVETQVHAIKVDGKWRTKRIHFD”, the protease stability score was 1.49. Take “DEEDEDAHYALKLLLKMVHTGNEEDMQRYLDPNVRVEQGDYHYHGREASEIIKNRFKNVKVKVDHYEIQGEYVNLKVTIDVNGKHKQSTIIVHKFDGRWLIEKIIII”: the protease stability score turned out to be 2.48.

Consider “DEEDEDARVALEEVMRSQITGDEEKSEKLIDPHVRLEIGDKIYHGRELVVRVEHELGVKHIEPKKVEMQGDWIDLHGVIVYGDKKIHQTLHLLKFNGKWLIKEIRIK”, for which the protease stability score turned out to be 1.6.
